Laboratory results from publication doi:10.1101/2022.04.25.489375 (bioRxiv, 2022).
Blank lines part the entries; values can stand above or below the molecule they belong to.

Legend:
[1] = target: Phosphomannose isomerase from T. kodakarensis (T. kodakarensis); test: SEC
[2] = target: the molecule itself; test: SEC

stoichiometry N [1]: 2
Molecule: Phosphomannose isomerase from T. kodakarensis (enzyme)

B1: Phosphomannose isomerase from T. barophilus (enzyme, UniProt F0LL70 1-113, looked up)
chain: MKAEIKEFIDRGTYRKAPLFEGELPEGSYAQIVEIKPKQTVPKHYHEKQYELFYIISGQAKLGIEEREYDAKPGDIFLVKPKTVHWVVNKKEEPFRLFVIKLNYFGDDSVWLE
stoichiometry N [2]: 2
